Measurements as given in the DeepSol protein solubility set.

Test: soluble on expression in E. coli; label from the status in PepcDB or PDB records

Row | Sequence | soluble on expression in E. coli
1 | MGSDKIHHHHHHMLLVFASCGVNKSTEDSKKTNETKVEQIATLSAGTPVQSLDPATAVDQTSVTLLANVMEGLYRLDEKNQPQPAIAAGQPKISNGGKTYTIVIRDGAKWADGTDITADDFVTAWQRVLDPKTASPNVELFAAIKNAKEISIGKQQKETLGVKSKGNKTIEIELEEPTPYFTDLLALTAYFPVQQNAVKEYGKEYGTTKENIVTNGAFTLTDLNGVGISDKWTIAKNPKYWDKKHVAMEKIKFQVVKDINTGINLYNDGQLDDAPVAGEYSKQLENNKDFIRELSATTMFLEVNQRNKKSITSNKHARQAINFAIDREAISNKILTNGSIPAKGVVPSKLVYNPKTGKDFTNSSLVFLDKSKAKDSWEKAKKELKGTDLSIDIMVNEEDLSKKLGEYLQNELQDTLDGLKVSVTAVPATLQTERLNSGNFMIALSGWQADFADPVSFLANFESKSSLNHGGYANEEYDKLLKNNSSKRLQELKDAEKLILEDAGVIPLLQIGNAKLRNQKISEMKVHSIGAKYDYKTMEIK | not soluble
2 | VAEEATGDWGQIFTAFNELSQTLAEYEEERVKHRNELQQERDRFRRLFQSIPEPAVVVEYTGNKTLIHNVNEAFEETFGYEASNAVGGDINDFIVPDGSLEEAESIDQLSSSGKQVTHEVRREAADGKRDFLLRSTPAVDGE | not soluble
3 | MGSDKIHHHHHHMIARKLADLGVDVIEAGFPASSEGEFIATRKIFEEIGDQVEVIGLSRSNKNDIDKTISTGISSIHLFIATSELHMKYKLKMTKEEVLNKIYESVKYAKDHGMIVEFSPEDATRTEEDFLFTAIRTAIEAGADRINIPDTVGTMHPFKYYDMIKKIVNFVGERIIVSVHCHNDFGLATANSLAGVYAGARQAHVTVNGIGERAGNASLEEVVMGIKKLLNYETNVKTWKLYEVSRFVAEMTGVPVPYFKAIVGDNAFGHESGIHVHGVIENPFTYEPISPEEVGNFRRLALGKHSGIHGLRKLLEEQGIYLSDDKLKIVLAEIKKLAESGNKVTVEDAKNIALKLMNS | not soluble
4 | MSFVAYEELIKEGDTAILSLGHGAMVAVRVQRGAQTQTRHGVLRHSVDLIGRPFGSKVTCGRGGWVYVLHPTPELWTLNLPHRTQILYSTDIALITMMLELRPGSVVCESGTGSGSVSHAIIRTIAPTGHLHTVEFHQQRAEKAREEFQEHRVGRWVTVRTQDVCRSGFGVSHVADAVFLDIPSPWEAVGHAWDALKVEGGRFCSFSPCIEQVQRTCQALAARGFSELSTLEVLPQVYNVRTVSLPPPDLGTGTDGPAGSDTSPFRSGTPMKEAVGHTGYLTFATKTPG | soluble
5 | MELAKFIGLTTFQDILEDCFALLVYERPEESNVGYFLEETQREVVADTVNAAILSTKPKGKNQSHSHLETLLRQLTACCLELRSLNDGQGEAFSLNRLLRTNNWKRTKKTT | soluble
6 | PYIEIFEQPRQRGMRFRYKCEGRSAGSIPGEHSTDNNKTFPSIQILNYFGKVKIRTTLVTKNEPYKPHPHDLVGKDCRDGYYEAEFGPERRVLSFQNLGIQCVKKKDLKESISLRISKKINPFNVPEEQLHNIDEYDLNVVRLCFQAFLPDEHGNYTLALPPLISNPIYDNRAPNTAELRICRVNKNCGSVKGGDEIFILCDKVQKDDIEVRFVLDNWEAKGSFSQADVHRQVAIVFRTPPFLRDITEPITVKMQLRRPSDQEVSEPMDFRYLPD | soluble
7 | EIEEIKITMDVLVASEDVMVTVTKEGYVKRTSLRSYAASNGELPGMKEGDYLLGRYEMNTQDTLLLFTKKGNYLYLPVHQLPDIRWKDNGQHVANLVTVDKDDDILTTLAVKEFSEE | soluble
8 | MSRTKDQAAAVLPTLLSALRLPSISRNWKHLTDTADRDGWPAANLLACLLEIEMAERASRRIQRHREQSGLPAGKTFATFDFDFPSGIRKPHLLSLATGEGWIESGGNILIFGQSGTGKTHVIAAIGHALIDAGRRVLFSTTTEMVQKLQAARRELSLPSMLDKLDKYDLIVLDSCAVRRDVESPSLGATFARRVARATQHKAAALEHHHHHH | not soluble
9 | VPMHPFVKALQEHFTAHQNPEKAEPMARYMKNHFLFLGIQTPERRQLLKDIIQIHTLPDQKDFQIIIRELWDLPEREFQAAALDIMQKYKKHINETHIPFLEELIVTKSWWDSVDSIVPTFLGDIFLKHPELISAYIPKWIASDNIWLQRAAILFQLKYKQKMDEELLFWIIGQLHSSKEFFIQKAIGWVLREYAKTNPDVVWEYVQNNELAPLSKREAIKHIKQNYGINNEKIGETLS | soluble
10 | DYSYLFGQGGTELFGEFAGAANGAVGTINGLRYTHPVGGSYMLVGRYIPADYWSYYRGAFARYSRPGNEWGVMGRAAWELPSDRTVRAFADYYGSFVPRFGRKEKTEALYWMFEGEKRLSALSWSCRIRGTADKRYRRSLAVRLRGRYMFDERWRLMASLQWSRSNSFDRELQTWQAPTGGKSFALRADYSGGKLLRVCSMDAVAFDTDSFADRLYEAVHNPRHHYSSAFFYGRGVRLGVFVRIAPLPQVEVESRIDHLLRRDTDTIGSAGELIRGQARTHLFMTVRYR | not soluble
11 | MSYAKVSHWQMASTEQLIIPPNNDPRPDDQLVIVVVTADGIASPIPLNVSRREVIRQVEMLNRNLTAANRGDNYQGQASQLYDWFIKPIKLILENKKIENISFILDRGLRSLPMATMYDRQSGQYLIEDYSVGLMPSLSLTNRDYAPLTGAQILAMGAEEFANQNPLPAAAVEVDTITNQLWRGSAFLNDRFTVDNFVQSLATKEYRLVHLATHGEFLPGNRNNSFVVFSDRSLDLDEFANVGLDKPIDLMVLSACRTAVGDFDAELGFAGLAVKTGVKTAIGSLWYVSDEATFALMTSFYDRLQPAPIKAKALQQAQLSLLRGEIRVVDGNLVLGDGTNISLADLPADIRQRLATQDLSHPYFWSGFTLVGSPWLEHHHHHH | not soluble
12 | MVGHKYPVKCLEVDKSKGRLVVSHRRAMAERQMEHLKTGALVEGTVQGVKPYGVFVDVFGTSGLLHISQISHDQVANIQSLFLPGEKVKCMVVSFDKQRGRISLSTKALEPHPGDMLRNKQLVYEKAEEMALSYNQRMDSPVRSKNTTSSSTDDIIAGLDIGSLDDLDPILFGTHTNSSNSNTHSDHLKQDSMNGTIPESDI | not soluble
13 | MSLSEGTFEVGKNTFLLNGEPFVVKAAEIHYPRIPKEYWEHRIKMCKALGMNTICLYVFWNFHEPEEGRYDFAGQKDIAAFCRLAQENGMYVIVRPGPYVCAEWEMGGLPWWLLKKKDIKLREQDPYYMERVKLFLNEVGKQLADLQISKGGNIIMVQVENEYGAFGIDKPYISEIRDMVKQAGFTGVPLFQCDWNSNFENNALDDLLWTINFGTGANIDEQFKRLKELRPDTPLMCSEFWSGWFDHWGAKHETRSAEELVKGMKEMLDRNISFSLYMTHGGTSFGHWGGANFPNFSPTCTSYDYDAPINESGKVTPKYLEVRNLLGNYLPEGETLPEIPDSIPTIAIPTIKMTEMAVLFDNLPHPKESEDIRTMEAFDQGWGSILYRTSLSASDKEQTLLITEAHDWAQVFLNGKKLATLSRLKGEGVVKLPPLKEGDRLDILVEAMGRMNFGKGIYDWKGITEKVELQSDKGVELVKDWQVYTIPVDYSFARDKQYKQQENAENQPAYYRSTFNLNELGDTFLNMMNWSKGMVWVNGHAIGRYWEIGPQQTLYVPGCWLKKGENEIIILDMAGPSKAETEGLRQPILDVQRGNGAYAHRKMGEGHHHHHH | soluble
14 | SIVHHAKERLILCSPYFIPDESLLEAVTSACYRGVTVELFVSEQADQFAIDHAQSSYYQALLEAGVKIYQFPKPDVLHTKYMIADPDDTTGNEALGVLGSSNLDIRSFGLNYEISLMIAKGNLIHELNALTDRYRTVSFKLTLDKWNQRSWRRRYVDNVMRLTSALQ | not soluble
15 | MLTMKFLVPVDFSEITNPLLRTVKRVGEKVDCEVHLLHVIPPVLYLPYPETMGVSVIDIELLEKLEDEKKAEAKEKLKALEEFLKPVKARSHVDVGDPADVILDYEEKLNPDMVFLGGHKKGLIEKLLIGSTTEKVVKHGKKSDFVIKGSEVEFRKKVVIAYDFSKTAQKTAEFALKFLKNFKVSVEIVHVHESIEMPLIEKLKHKIEKEFSEEKKKILNELKGRFEEEGIKTEVKFLEGEDAVDVISSYVNETPEVELLIIGSKGLSGLKKLILGRTATKLLGKVNKPILIYKVQE | soluble
16 | MGSDKIHHHHHHERNKTLYWGGALWSPPSNWNPFTPWNAVAGTIGLVYEPLFLYDPLNDKFEPWLAEKGEWVSNNEYVLTLRKGLRWQDGVPLTADDVVFTFEIAKKYTGISYSPVWNWLGRIERVDERTLKFVFSDPRYQEWKQMLINTPIVPKHIWENKTEEEVLQAANENPVGSGPYYVESWADDRCVFKKNGNWWGIRELGYDPKPERIVELRVLSNNVAVGMLMKGELDWSNFFLPGVPVLKKAYGIVTWYENAPYMLPANTAGIYINVNKYPLSIPEFRRAMAYAINPEKIVTRAYENMVTAANPAGILPLPGYMKYYPKEVVDKYGFKYDPEMAKKILDELGFKDVNKDGFREDPNGKPFKLTIECPYGWTDWMVSIQSIAEDLVKVGINVEPKYPDYSKYADDLYGGKFDLILNNFTTGVSATIWSYFNGVFYPDAVESEYSYSGNFGKYANPEVETLLDELNRSNDDAKIKEVVAKLSEILLKDLPFIPLWYNGAWFQASEAVWTNWPTEKNPYAVPIGWNGWWQLTGIKTLFGIEAK | soluble
17 | YPFWAQQTYPETPREPTGRIVCANCHLAAKPTEVEVPQSVLPDTVFKAVVKIPYDTSVQQVGADGSKVGLNVGAVLMLPEGFKIAPEDRIPEELKEEIGDVYFQPYGEDKDNIVIVGPLPGEQYQEIVFPVLSPNPANDKNIHFGKYSVHVGGNRGRGQVYPTGEKSNNNLYSAAATGTISKIAKQEGEDGSVKYLVDIKTESGEVVSDTIPAGPELIVSEGQAVTAGDALTNNPNVGGFGQLDAEIVLQDANR | soluble
18 | MSEPIRVLVTGAAGQIAYSLLYSIGNGSVFGKDQPIILVLLDITPMMGVLDGVLMELQDCALPLLKDVIATDKEDVAFKDLDVAILVGSMPRREGMERKDLLKANVKIFKSQGAALDKYAKKSVKVIVVGNPANTNCLTASKSAPSIPKENFSCLTRLDHNRAKAQIALKLGVTANDVKNVIIWGNHSSTQYPDVNHAKVKLQGKEVGVYEALKDDSWLKGEFVTTVQQRGAAVIKARKLSSAMSAAKAICDHVRDIWFGTPEGEFVSMGVISDGNSYGVPDDLLYSFPVVIKNKTWKFVEGLPINDFSREKMDLTAKELTEEKESAFEFLSSA | soluble
19 | MARAIHVFRTPDRFVAGTVGQPGNRTFYLQAVHDSRVVSVVLEKQQVAVLAERIGALLFEVNRRFGTPVPPEPTEIDDLSPLIMPVDAEFRVGTMGLGWDSEAQSVVVELLAVTDAEFDASVVLDDTEEGPDAVRVFLTPESARQFATRSYRVISAGRPPCPLCDEPLDPEGHICARTNGYRRDVLLGSGDDPAG | soluble
20 | SNQLQQLQNPGESPPVHPFVAPLSYLLGTWRGQGEGEYPTIPSFRYGEEIRFSHSGKPVIAYTQKTWKLESGAPMHAESGYFRPRPDGSIEVVIAQSTGLVEVQKGTYNVDEQSIKLKSDLVGNASKVKEISREFELVDGKLSYVVRMSTTTNPLQPHLKAILDKL | soluble
21 | MSLYQSIVFIARNVVNSITRILHDHPTNSSLITQTYFITPNHSGKNISFHLFHDFKYCSADTRHYSQLIIFPVKENSRPTQVSRPLGGRPHESVFLPKFTRTQNSYCLTRLDRMGFPPPRKASTIMHFFQDDRTVMCSPKDGIPVSSFHIMICFLERRKGN | soluble
22 | FYHDYTVTQDELLKDSSDALKKEFLKILDKAIKRLILMANGDTIVIPLSGGYDSRAIATMLKKNGYENVILYTYGKPDSTEVRVAREVAKNLEFEWIFVEQNEDIVDPDYPERDFFLEFYKYAFNHVSTIHLQDFFVFKHLHDNSVIPKNSIIVPGHSGDFLGGSHLRKLPIPKSKRDVFNTILIKHYIVNEHIKLSPYVVKKINEYLNSFSEHTLPYSLDDNWNMKERQAKFIVNSNRTYEFFGYRHAIPLWDLELVEFFRRVPLEYKTKEVIYSDALRESVFKDFGVVLSQKDVANTMALEFYHRIFHSMEIFRHIRYFAEKN | not soluble
